# Laboratory results taken from patent publication US12377176B2, “Cancer diagnostic imaging agents” (Technische Universität München, priority 2019, dated 2025).
# Several values for one entry are separate records, joined by “and”; a condition that tells them apart may be missing. Equal values may be shown once. Read-outs that look alike come from different tables or passages of the source.
# Experiments:
# PSMA = biological target: T1, PSMA (Homo sapiens, UniProt Q04609); experiment: Determination of IC50: PSMA affinity, competition with ([125I]I-BA)KuE on LNCaP cells; type: binding; details: LNCaP cells, [125I]IB-KuE 0.2 nM, 1 h, 4 °C
# T1 construct: endogenous in cells; host or cells: LNCaP cells
# T1 sequence (Q04609 whole entry): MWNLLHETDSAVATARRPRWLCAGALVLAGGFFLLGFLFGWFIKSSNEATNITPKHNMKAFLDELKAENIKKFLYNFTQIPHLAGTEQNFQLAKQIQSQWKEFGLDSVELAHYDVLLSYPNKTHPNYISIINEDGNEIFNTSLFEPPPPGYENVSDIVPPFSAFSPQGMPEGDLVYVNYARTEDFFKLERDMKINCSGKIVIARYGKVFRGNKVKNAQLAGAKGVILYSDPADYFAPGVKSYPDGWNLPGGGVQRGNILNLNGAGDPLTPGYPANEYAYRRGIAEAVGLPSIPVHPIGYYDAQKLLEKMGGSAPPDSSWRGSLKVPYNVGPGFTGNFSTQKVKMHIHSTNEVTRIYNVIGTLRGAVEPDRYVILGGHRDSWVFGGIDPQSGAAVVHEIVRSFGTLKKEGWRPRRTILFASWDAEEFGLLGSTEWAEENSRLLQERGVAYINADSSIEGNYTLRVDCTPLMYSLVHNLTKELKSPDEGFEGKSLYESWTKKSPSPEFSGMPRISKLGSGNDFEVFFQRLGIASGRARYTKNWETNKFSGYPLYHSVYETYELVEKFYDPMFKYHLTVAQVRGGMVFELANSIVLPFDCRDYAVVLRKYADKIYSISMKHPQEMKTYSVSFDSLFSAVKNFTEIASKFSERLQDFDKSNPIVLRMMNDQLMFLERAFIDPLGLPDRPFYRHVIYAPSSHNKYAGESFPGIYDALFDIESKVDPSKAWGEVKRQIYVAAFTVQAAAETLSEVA
# Experimental: After removal of the culture medium, the cells were treated once with 500 μL of HBSS (Hank's balanced salt solution, Biochrom, Berlin, Germany, with addition of 1% bovine serum albumin (BSA)) and left 15 min on ice for equilibration in 200 μL HBSS (1% BSA). […] Quantification of bound and free radioligand was accomplished in a γ-counter.
# [1] = Human biodistribution and uptake in tumor lesions, PET/CT SUV; type: in vivo; details: for ratio SUVmax to background, max / ratio SUVmax to background, mean / ratio SUVmax to background, min / ratio SUVmean to background, max / ratio SUVmean to background, mean / ratio SUVmean to background, min: human PET/CT, background gluteal muscle; for SUVmax mean, bladder / SUVmax mean, bloodpool / SUVmax mean, bone / SUVmax mean, duodenum / SUVmax mean, kidney / SUVmax mean, liver / SUVmax mean, lungs / SUVmax mean, pancreas / SUVmax mean, parotic gland / SUVmax mean, spleen / SUVmax mean, submandibular gland / SUVmean mean, duodenum / SUVmean mean, kidney / SUVmean mean, liver / SUVmean mean, lungs / SUVmean mean, pancreas / SUVmean mean, parotic gland / SUVmean mean, spleen / SUVmean mean, submandibular gland / SUVmax mean, background / SUVmean mean, background / SUVmean mean, bladder / SUVmean mean, bloodpool / SUVmean mean, bone / SUVmax mean, tumor / SUVmean mean, tumor: patients, PET/CT; for SUVmax mean, background / SUVmean mean, background: gluteal muscle; for SUVmean mean, bone: non-diseased bone
# Experimental: Human biodistribution was estimated by analysing clinical ^18F-rhPSMA-7- and ^18F-rhPSMA-7.3-PET/CT exams in 47 and 32 patients, respectively.
# The mean and maximum standardized uptake values (SUVmean/SUVmax) were determined for background (gluteal muscle), normal organs (salivary glands, blood pool, lung, liver, spleen, pancreas, duodenum, kidney, bladder, bone) and three representative tumor lesions. Tumor uptake was analyzed in 89 lesions (26 primary tumors/local recurrences, 23 bone, 38 lymph node and 2 visceral metastases) and 63 lesions (14 primary tumors/local recurrences, 30 bone, 18 lymph node and 1 visceral metastases) for ^18F-rhPSMA-7 and ^18F-rhPSMA-7.3, respectively.
# Organ-background and Tumor-background ratios were calculated.
# HSA = biological target: T2, HSA (Homo sapiens, UniProt P02768); experiment: HSA binding on Chiralpak HSA column; type: in vitro ADME; details: Chiralpak HSA column (50 × 3 mm, 5 μm), (n = 6)
# T2 construct: purchased H13H-2433
# T2 sequence (P02768 25-609): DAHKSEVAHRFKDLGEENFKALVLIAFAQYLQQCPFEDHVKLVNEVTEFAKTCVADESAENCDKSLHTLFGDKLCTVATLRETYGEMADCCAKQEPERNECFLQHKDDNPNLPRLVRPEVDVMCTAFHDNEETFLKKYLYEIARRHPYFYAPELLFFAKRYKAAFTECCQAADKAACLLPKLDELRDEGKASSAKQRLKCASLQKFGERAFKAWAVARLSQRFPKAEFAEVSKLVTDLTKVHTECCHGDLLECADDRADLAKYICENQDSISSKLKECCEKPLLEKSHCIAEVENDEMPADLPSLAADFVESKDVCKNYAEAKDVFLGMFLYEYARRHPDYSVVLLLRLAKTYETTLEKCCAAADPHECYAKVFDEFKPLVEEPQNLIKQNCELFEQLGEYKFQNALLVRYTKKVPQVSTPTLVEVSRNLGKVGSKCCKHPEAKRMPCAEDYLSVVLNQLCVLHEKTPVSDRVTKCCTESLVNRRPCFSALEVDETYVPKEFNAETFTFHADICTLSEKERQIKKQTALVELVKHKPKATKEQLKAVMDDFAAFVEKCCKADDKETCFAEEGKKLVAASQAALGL
# Experimental: The mobile phase (A: NH4OAc, 50 mM in water, pH 7 and B: isopropanol) was freshly prepared for each experiment and only used for one day. The column was kept at room temperature and each run was stopped after detection of the signal to reduce the acquisition time. All substances were dissolved in a 0.5 mg/ml concentration in 50% 2-propanol and 50% 50 mM pH 6.9 ammonium acetate buffer. […] All nine reference substances were injected consecutively to establish a non-linear regression with Origin Pro 2016G.
# [2] = Preclinical dosimetry in SCID mice, extrapolated to 70-kg Standard Adult (OLINDA/EXM 1.0); type: in vivo; details: extrapolated from mice
# Experimental: 3-5 mice were injected per timepoint with a mean 25.6±3.6 MBq of 18F-rhPSMA-7 and 28.5±4.8 MBq of 18F-rhPSMA-7.3, respectively. Mice, severe combined immunodeficiency (SCID) were used for the experiments.
# Urine, blood, heart, lung, spleen, pancreas, liver, stomach (emptied), small intestine (emptied), large intestine (emptied), kidneys, bladder, testis, fat, muscle (partial, femoral), femur, tail and brain. Urine was collected with a pipette in the CO2 gas chamber. In case of missing urination in the chamber the bladder was aspirated with an insulin syringe. Blood was withdrawn instantly after sacrifice with an insulin syringe from the heart. All other tissues and organs were dissected and transferred directly in plastic containers.
# The counting rates of measurement samples were automatically corrected for decay. The radioactivity distribution ratios (unit: percentage of the injected dose (% ID) in the measurement samples were determined using the equation below. The sum of the counting rates from all measurement samples obtained from one mouse was designated as the counting rate for administrated radioactivity.
# For consistency of statistical calculations for each radiotracer the same number of time-points for ^18F-rhPSMA-7 and ^18F-rhPSMA-7.3 was used. Therefore, for ^18F-rhPSMA-7 the 10 min and 20 min time points were combined creating a 15 min endpoint.
# In brief, to calculate a human dosimetry from the biodistribution in the mice, an extrapolation was necessary to account for the differences between the animals and humans. Normal-organ radiation doses were estimated for the 70-kg Standard Adult anatomic model using time-depending organ activity concentrations (in percent of the injected dose per gram, % ID/g) and total-body activities measured in the biodistribution studies in mice.
# Tissue activity concentrations in mice were converted to tissue fractional activities in the 70-kg Standard Adult using the relative fractional organ masses in the Standard Adult and the “standard” 25-gramm mouse. Time-dependent total-body activity was fit to an exponential function and the difference between the injected activity and the total-body activity was assumed to be excreted to the urine because activity concentrations in the liver and GI tracer were low at all time points studied.
# Organ residence time was calculated by numerical integration using the trapezoidal rule and the rest-of-body ^18F residence times was calculated as the difference between the total-body residence time and the sum of the organ and urine residence times. The bladder contents residence time was estimated using the dynamic voiding model in the OLINDA/EXM 1.0 dosimetry software. Finally, the Standard Adult mean organ dose equivalents (in mSv/MBq) and effective dose (also in mSv/MBq) were then calculated using OLINDA/EXM 1.0.
molecule,measurement,setting,value
"CC(C)(C)[Si](F)(c1ccc(C(=O)NC[C@@H](NC(=O)CC[C@@H](C(=O)O)N2CCN(CC(=O)O)CCN(CC(=O)O)CCN(CC(=O)O)CC2)C(=O)N[C@H](CCCCNC(=O)CCC(=O)NCCC[C@@H](NC(=O)CC[C@H](NC(=O)N[C@@H](CCC(=O)O)C(=O)O)C(=O)O)C(=O)O)C(=O)O)cc1)C(C)(C)C [rhPSMA7.3, [^19F][^natGa]D-Dap-S-DOTAGA-rhPSMA7, metal not drawn]",IC50,"PSMA; HBSS+1% BSA, single measurements, read-out: individual IC50 measurements",3.17 nM and 2.91 nM and 5.35 nM and 5.74 nM and 4.59 nM and 4.45 nM
same,IC50,"PSMA; mean of the individual measurements, read-out: IC50 Mean",4.37 nM
same,"ratio SUVmax to background, max",[1]; bladder,5.5
same,"ratio SUVmax to background, mean",[1]; bladder,3.1
same,"ratio SUVmax to background, min",[1]; bladder,0.9
same,"ratio SUVmean to background, max",[1]; bladder,6.8
same,"ratio SUVmean to background, mean",[1]; bladder,3.1
same,"ratio SUVmean to background, min",[1]; bladder,0.9
same,"ratio SUVmax to background, max",[1]; bloodpool,5.2
same,"ratio SUVmax to background, mean",[1]; bloodpool,2.8
same,"ratio SUVmax to background, min",[1]; bloodpool,1.5
same,"ratio SUVmean to background, max",[1]; bloodpool,4.9
same,"ratio SUVmean to background, mean",[1]; bloodpool,2.9
same,"ratio SUVmean to background, min",[1]; bloodpool,1.7
same,"ratio SUVmax to background, max",[1]; bone,3.2
same,"ratio SUVmax to background, mean",[1]; bone,2.0
same,"ratio SUVmax to background, min",[1]; bone,1.1
same,"ratio SUVmean to background, max",[1]; bone,3.6
same,"ratio SUVmean to background, mean",[1]; bone,2.1
same,"ratio SUVmean to background, min",[1]; bone,1.0
same,"ratio SUVmax to background, max",[1]; duodenum,34.3
same,"ratio SUVmax to background, mean",[1]; duodenum,16.2
same,"ratio SUVmax to background, min",[1]; duodenum,6.9
same,"ratio SUVmean to background, max",[1]; duodenum,39.4
same,"ratio SUVmean to background, mean",[1]; duodenum,17.1
same,"ratio SUVmean to background, min",[1]; duodenum,4.7
same,"ratio SUVmax to background, max",[1]; kidney,93.0
same,"ratio SUVmax to background, mean",[1]; kidney,51.8
same,"ratio SUVmax to background, min",[1]; kidney,25.7
same,"ratio SUVmean to background, max",[1]; kidney,95.5
same,"ratio SUVmean to background, mean",[1]; kidney,55.6
same,"ratio SUVmean to background, min",[1]; kidney,27.6
same,"ratio SUVmax to background, max",[1]; liver,19.0
same,"ratio SUVmax to background, mean",[1]; liver,9.7
same,"ratio SUVmax to background, min",[1]; liver,4.0
same,"ratio SUVmean to background, max",[1]; liver,20.7
same,"ratio SUVmean to background, mean",[1]; liver,11.4
same,"ratio SUVmean to background, min",[1]; liver,4.1
same,"ratio SUVmax to background, max",[1]; lungs,1.8
same,"ratio SUVmax to background, mean",[1]; lungs,1.0
same,"ratio SUVmax to background, min",[1]; lungs,0.6
same,"ratio SUVmean to background, max",[1]; lungs,1.8
same,"ratio SUVmean to background, mean",[1]; lungs,1.0
same,"ratio SUVmean to background, min",[1]; lungs,0.6
same,"ratio SUVmax to background, max",[1]; pancreas,6.9
same,"ratio SUVmax to background, mean",[1]; pancreas,4.1
same,"ratio SUVmax to background, min",[1]; pancreas,2.2
same,"ratio SUVmean to background, max",[1]; pancreas,7.8
same,"ratio SUVmean to background, mean",[1]; pancreas,4.4
same,"ratio SUVmean to background, min",[1]; pancreas,2.3
same,"ratio SUVmax to background, max",[1]; parotid gland,46.2
same,"ratio SUVmax to background, mean",[1]; parotid gland,24.7
same,"ratio SUVmax to background, min",[1]; parotid gland,11.9
same,"ratio SUVmean to background, max",[1]; parotid gland,44.6
same,"ratio SUVmean to background, mean",[1]; parotid gland,25.2
same,"ratio SUVmean to background, min",[1]; parotid gland,12.4
same,"SUVmax mean, bladder",[1],3.1
same,"SUVmax mean, bloodpool",[1],2.8
same,"SUVmax mean, bone",[1],2.1
same,"SUVmax mean, duodenum",[1],16.4
same,"SUVmax mean, kidney",[1],51.9
same,"SUVmax mean, liver",[1],9.7
same,"SUVmax mean, lungs",[1],1.1
same,"SUVmax mean, pancreas",[1],4.2
same,"SUVmax mean, parotic gland",[1],24.6
same,"SUVmax mean, spleen",[1],11.4
same,"SUVmax mean, submandibular gland",[1],28.4
same,"SUVmean mean, duodenum",[1],11.0
same,"SUVmean mean, kidney",[1],35.5
same,"SUVmean mean, liver",[1],7.3
same,"SUVmean mean, lungs",[1],0.7
same,"SUVmean mean, pancreas",[1],2.8
same,"SUVmean mean, parotic gland",[1],16.0
same,"SUVmean mean, spleen",[1],8.5
same,"SUVmean mean, submandibular gland",[1],19.6
same,"SUVmax mean, background",[1],1.0
same,"SUVmean mean, background",[1],0.7
same,"SUVmean mean, bladder",[1]; listed as 18F-rhPSMA-7.3,2.0 and 2.0±0.8
same,"SUVmean mean, bloodpool",[1]; listed as 18F-rhPSMA-7.3,1.9 and 1.8
same,"SUVmean mean, bone",[1],1.3
same,"SUVmax mean, tumor",[1]; tumor lesions,44.0
same,"SUVmean mean, tumor","[1]; tumor lesions, listed as 18F-rhPSMA-7.3",32.5±42.7 and 32.5
same,"ratio SUVmax to background, max",[1]; spleen,22.4
same,"ratio SUVmax to background, mean",[1]; spleen,11.4
same,"ratio SUVmax to background, min",[1]; spleen,3.6
same,"ratio SUVmean to background, max",[1]; spleen,28.6
same,"ratio SUVmean to background, mean",[1]; spleen,13.3
same,"ratio SUVmean to background, min",[1]; spleen,3.9
same,"ratio SUVmax to background, max",[1]; submandibular gland,62.1
same,"ratio SUVmax to background, mean",[1]; submandibular gland,28.2
same,"ratio SUVmax to background, min",[1]; submandibular gland,14.0
same,"ratio SUVmean to background, max",[1]; submandibular gland,62.3
same,"ratio SUVmean to background, mean",[1]; submandibular gland,30.6
same,"ratio SUVmean to background, min",[1]; submandibular gland,15.7
same,"ratio SUVmax to background, max",[1]; tumor lesions,321.2
same,"ratio SUVmax to background, mean",[1]; tumor lesions,43.6
same,"ratio SUVmax to background, min",[1]; tumor lesions,1.7
same,"ratio SUVmean to background, max",[1]; tumor lesions,356.4
same,"ratio SUVmean to background, mean",[1]; tumor lesions,50.8
same,"ratio SUVmean to background, min",[1]; tumor lesions,1.8
same,HSA Binding,HSA,96.9%
same,Effective Dose,[2]; 1.0 h bladder voiding interval,1.28E−02 mSv/MBq
same,Effective Dose Equivalent,[2]; 1.0 h bladder voiding interval,1.85E−02 mSv/MBq
same,Effective Dose,[2]; […] bladder voiding interval,2.17E−02 mSv/MBq
same,Effective Dose Equivalent,[2]; […] bladder voiding interval,2.94E−02 mSv/MBq
[^19F][^natGa]D/L-Dap-R/S-DOTAGA-rhPSMA7 [rhPSMA7-rac],"SUVmax mean, bladder",[1],8.5
same,"SUVmax mean, bloodpool",[1],2.4
same,"SUVmax mean, bone",[1],1.7
same,"SUVmax mean, duodenum",[1],14.8
same,"SUVmax mean, kidney",[1],44.8
same,"SUVmax mean, liver",[1],9.5
same,"SUVmax mean, lungs",[1],1.1
same,"SUVmax mean, pancreas",[1],3.7
same,"SUVmax mean, parotic gland",[1],23.8
same,"SUVmax mean, spleen",[1],11.8
same,"SUVmax mean, submandibular gland",[1],27.0
same,"SUVmean mean, bloodpool",[1],2.0
same,"SUVmean mean, duodenum",[1],10.9
same,"SUVmean mean, kidney",[1],32.4
same,"SUVmean mean, liver",[1],7.0
same,"SUVmean mean, lungs",[1],0.7
same,"SUVmean mean, pancreas",[1],2.5
same,"SUVmean mean, parotic gland",[1],16.9
same,"SUVmean mean, spleen",[1],9.1
same,"SUVmean mean, submandibular gland",[1],19.6
same,"SUVmax mean, background",[1],1.0
same,"SUVmean mean, background",[1],0.6
same,"SUVmean mean, bladder",[1]; listed as 18F-rhPSMA-7,6.3
same,"SUVmean mean, bone",[1],1.1
same,"SUVmax mean, tumor",[1]; tumor lesions,27.6
same,"SUVmean mean, tumor","[1]; tumor lesions, listed as 18F-rhPSMA-7",20.0±20.2 and 20.0
same,HSA Binding,HSA,96.7%
same,Effective Dose,[2]; 1.0 h bladder voiding interval,1.22E−02 mSv/MBq
same,Effective Dose Equivalent,[2]; 1.0 h bladder voiding interval,1.82E−02 mSv/MBq
same,Effective Dose,[2]; […] bladder voiding interval,2.66E−02 mSv/MBq
same,Effective Dose Equivalent,[2]; […] bladder voiding interval,3.56E−02 mSv/MBq
